According to patent US8357518B2, “Thermostable enzymes for the hydrolysis of mannan-containing polysaccharides” (The Board of Trustees of the University of Illinois, priority 2010, dated 2013):

How the values were obtained:
Format in all cases: biochemical, Caldanaerobius polysaccharolyticus
[1] = substrate: O=[N+]([O-])c1ccc(O[C@@H]2O[C@H](CO)[C@@H](O)[C@H](O)[C@@H]2O)cc1; experiment: Kinetic properties with pNP-linked sugars (Man5B E137A); settings: other: Man5B E137A 2 μM, at 10 mM substrate, 65° C., pH 5.5
Description: (§1) Determination of kinetic properties for wild type and mutant Man5B with pNP-linked sugars. Kinetic properties of wild type and mutant Man5B were determined for pNP-β-D-mannopyranoside and pNP-β-D-cellobioside. The substrate concentrations ranged from 0.06 to 10 mM and reactions were performed at 65° C. in citrate buffer (50 mM sodium citrate, pH 5.5). The reactions were equilibrated to 65° C. using a thermostated Cary 300 UV-Vis spectrophotometer, and the reactions were initiated by the addition of wild type (5 nM, final concentration) or mutant (2 μM, final concentration) Man5B. The rate of pNP release was determined by continuously monitoring the absorbance at 400 nm. Initial rate data were then plotted against the substrate concentrations, and the values of the Michaelis-Menten constant (KM) and the maximum velocity (Vmax) were estimated from a nonlinear curve fit using GraphPad Prism v5.01 from GraphPad Software (San Diego, Calif.). The kcat was calculated as the quotient of the Vmax and the concentration of enzyme used in the reaction.
(§2) Site-directed mutagenesis. Mutagenesis was carried out using PCR-based […] […]
(§3) Next, to test whether the mutations introduced in Man5B had any effects on the catalytic activity of this enzyme, the catalytic parameters for the wild type and mutant enzymes were determined using pNP-β-D-cellobioside and pNP-β-D-mannopyranoside as substrates.

[2] = substrate: O=[N+]([O-])c1ccc(O[C@@H]2O[C@H](CO)[C@@H](O[C@@H]3O[C@H](CO)[C@@H](O)[C@H](O)[C@H]3O)[C@H](O)[C@H]2O)cc1; experiment: as above; settings: other: Man5B E137A 2 μM, at 10 mM substrate, 65° C., pH 5.5
Description: as §1, §2, §3

[3] = substrate: O=[N+]([O-])c1ccc(O[C@@H]2O[C@H](CO)[C@@H](O)[C@H](O)[C@@H]2O)cc1; experiment: Kinetic properties with pNP-linked sugars (Man5B E137Q); settings: other: Man5B E137Q 2 μM, at 10 mM substrate, 65° C., pH 5.5
Description: as §1
(§4) Site-directed mutagenesis. Mutagenesis was carried out using PCR-based […] XL site-directed mutagenesis kit from Stratagene (La Jolla, Calif.) according to the manufacturer's instructions. Mutagenic primers with the desired mutation were designed using the […]® Primer Design Program (Stratagene website) and are listed in Table 1-2). The DNA templates for the PCR amplifications were the pET28a-Man5A-TM1 plasmid and the pET46-Man5B plasmid for generation of the Man5A-TM1 and Man5B mutants, respectively. Following 18 cycles of PCR using Pfu Turbo, the PCR mixture was digested with DpnI at 37° C. for 12 h to remove the parental DNA, and the resulting DNA was transformed into competent E. coli JM109 cells through electroporation. The DNA was sequenced to confirm that there were no PCR-derived nucleotide changes except those introduced by the PCR primers. The mutated genes were then expressed to produce the mutant recombinant proteins. The expression and purification methods were as described above for wild-type Man5A-TM1 and Man5B.
as §3

[4] = substrate: O=[N+]([O-])c1ccc(O[C@@H]2O[C@H](CO)[C@@H](O[C@@H]3O[C@H](CO)[C@@H](O)[C@H](O)[C@H]3O)[C@H](O)[C@H]2O)cc1; experiment: as above; settings: other: Man5B E137Q 2 μM, 65° C., citrate buffer pH 5.5
Description: as §1, §4, §3

[5] = substrate: O=[N+]([O-])c1ccc(O[C@@H]2O[C@H](CO)[C@@H](O)[C@H](O)[C@@H]2O)cc1; experiment: Kinetic properties with pNP-linked sugars (Man5B E258A); settings: other: Man5B E258A 2 μM, at 10 mM substrate, 65° C., pH 5.5
Description: as §1, §2, §3

[6] = substrate: O=[N+]([O-])c1ccc(O[C@@H]2O[C@H](CO)[C@@H](O[C@@H]3O[C@H](CO)[C@@H](O)[C@H](O)[C@H]3O)[C@H](O)[C@H]2O)cc1; experiment: as above; settings: other: Man5B E258A 2 μM, at 10 mM substrate, 65° C., pH 5.5
Description: as §1, §2, §3

[7] = substrate: O=[N+]([O-])c1ccc(O[C@@H]2O[C@H](CO)[C@@H](O)[C@H](O)[C@@H]2O)cc1; experiment: Kinetic properties with pNP-linked sugars (Man5B E258Q); settings: other: Man5B E258Q 2 μM, at 10 mM substrate, 65° C., pH 5.5
Description: as §1, §2, §3

[8] = substrate: O=[N+]([O-])c1ccc(O[C@@H]2O[C@H](CO)[C@@H](O[C@@H]3O[C@H](CO)[C@@H](O)[C@H](O)[C@H]3O)[C@H](O)[C@H]2O)cc1; experiment: as above; settings: other: Man5B E258Q 2 μM, at 10 mM substrate, 65° C., pH 5.5
Description: as §1, §2, §3

B1: Caldanaerobius polysaccharolyticus endo-β-mannanase Man5B (SEQ ID NO: 31) variant E137A (Caldanaerobius polysaccharolyticus; E137A) (protein)
chain: MKKYGFNFQWMYVWEEGREPEPPDKKALDFLAETGFNFVRIPVDYRFWTRNFDYFNPDKKVFEYIDLYLRECSARNIHMCLNLHRAPGYCINRNDIERDNLWLDKRAQDGFVYQWELFAKRYKGVSSKFLSFDLVNAPPNIGQYGLTRENHASLIIRTVEAIRKIDPDREIVIDGLGGGNIAMPELAHLGVVHSGRGYQPMALTHYQASWWDGHKGLPEPYYPDLLWQGKVWNKDTLREYYKPWRDLQQKGVNVHIGEFGCFNKTSNDVAIRWFEDVLSLYKEFEWGYSLWNFKGPFGIVEHGRPGAKYEYYRGFKVDRELLDLLVENRV
With B1 the kcat [1] was 0.019 ± 0.001 s⁻¹ and the kcat [2] was 0.011 ± 0.004 s⁻¹.

B2: Caldanaerobius polysaccharolyticus endo-β-mannanase Man5B (SEQ ID NO: 31) variant E137Q (Caldanaerobius polysaccharolyticus; E137Q) (protein)
chain: MKKYGFNFQWMYVWEEGREPEPPDKKALDFLAETGFNFVRIPVDYRFWTRNFDYFNPDKKVFEYIDLYLRECSARNIHMCLNLHRAPGYCINRNDIERDNLWLDKRAQDGFVYQWELFAKRYKGVSSKFLSFDLVNQPPNIGQYGLTRENHASLIIRTVEAIRKIDPDREIVIDGLGGGNIAMPELAHLGVVHSGRGYQPMALTHYQASWWDGHKGLPEPYYPDLLWQGKVWNKDTLREYYKPWRDLQQKGVNVHIGEFGCFNKTSNDVAIRWFEDVLSLYKEFEWGYSLWNFKGPFGIVEHGRPGAKYEYYRGFKVDRELLDLLVENRV
B2 was tested, and the kcat [3] was 0.018 ± 0.006 s⁻¹, the Km [4] was “(2.9 ± 0.9) × 10^−1 mM” and the kcat [4] was 0.047 ± 0.01 s⁻¹. For the same protein, the kcat/Km [4] was 160 ± 60 M⁻¹ s⁻¹.

B3: Caldanaerobius polysaccharolyticus endo-β-mannanase Man5B (SEQ ID NO: 31) variant E258A (Caldanaerobius polysaccharolyticus; E258A) (protein)
chain: MKKYGFNFQWMYVWEEGREPEPPDKKALDFLAETGFNFVRIPVDYRFWTRNFDYFNPDKKVFEYIDLYLRECSARNIHMCLNLHRAPGYCINRNDIERDNLWLDKRAQDGFVYQWELFAKRYKGVSSKFLSFDLVNEPPNIGQYGLTRENHASLIIRTVEAIRKIDPDREIVIDGLGGGNIAMPELAHLGVVHSGRGYQPMALTHYQASWWDGHKGLPEPYYPDLLWQGKVWNKDTLREYYKPWRDLQQKGVNVHIGAFGCFNKTSNDVAIRWFEDVLSLYKEFEWGYSLWNFKGPFGIVEHGRPGAKYEYYRGFKVDRELLDLLVENRV
B3 gave a kcat [5] of 0.018 ± 0.003 s⁻¹ and a kcat [6] of 0.011 ± 0.001 s⁻¹.

B4: Caldanaerobius polysaccharolyticus endo-β-mannanase Man5B (SEQ ID NO: 31) variant E258Q (Caldanaerobius polysaccharolyticus; E258Q) (protein)
chain: MKKYGFNFQWMYVWEEGREPEPPDKKALDFLAETGFNFVRIPVDYRFWTRNFDYFNPDKKVFEYIDLYLRECSARNIHMCLNLHRAPGYCINRNDIERDNLWLDKRAQDGFVYQWELFAKRYKGVSSKFLSFDLVNEPPNIGQYGLTRENHASLIIRTVEAIRKIDPDREIVIDGLGGGNIAMPELAHLGVVHSGRGYQPMALTHYQASWWDGHKGLPEPYYPDLLWQGKVWNKDTLREYYKPWRDLQQKGVNVHIGQFGCFNKTSNDVAIRWFEDVLSLYKEFEWGYSLWNFKGPFGIVEHGRPGAKYEYYRGFKVDRELLDLLVENRV
Protein B4 has a kcat [7] of 0.012 ± 0.002 s⁻¹ and a kcat [8] of 0.012 ± 0.004 s⁻¹.
